Square brackets hold non-standard residues; d marks the D form. Primed or numbered codes have the meaning given here. Side chains are listed from the residue outwards. * marks the point of attachment. Butanoyl(4-Ph) = O=C(CCCc1ccccc1)*; IR800CW″ = IRDye800CW maleimide; Mpa = O=C(O)CCS
Molecular target: MC5R expressed in the kidneys (of the xenograft-bearing mice)
Test: cell-based or functional assay

MC5R expressed in the kidneys (of the xenograft-bearing mice), sequence (P41149 whole entry): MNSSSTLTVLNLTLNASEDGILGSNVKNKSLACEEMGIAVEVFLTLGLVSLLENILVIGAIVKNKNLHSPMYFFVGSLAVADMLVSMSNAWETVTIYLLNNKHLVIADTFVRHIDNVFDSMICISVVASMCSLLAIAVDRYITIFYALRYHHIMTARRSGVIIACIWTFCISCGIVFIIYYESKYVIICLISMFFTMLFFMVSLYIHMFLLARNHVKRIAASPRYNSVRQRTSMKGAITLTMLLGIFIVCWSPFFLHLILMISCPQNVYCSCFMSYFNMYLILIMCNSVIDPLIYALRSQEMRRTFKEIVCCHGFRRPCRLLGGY

fold decrease in renal uptake of MC1RL-800 at 2 hr, with co-injection of 1 nmol/kg MC4R/5R compound (SEQ ID NO:10), compared to control animals: 1.56 fold
Binder: {Butanoyl(4-Ph)}-H[dF]RWGK([Mpa-IR800CW″])-NH2 [4-phenylbutyryl-His-DPhe-Arg-Trp-Gly-Lys(Mpr-IR800CW)-NH2]
